Assay results: PMC5679657, “KSHV inhibits stress granule formation by viral ORF57 blocking PKR activation” (PLoS Pathogens, 2017)

What was measured:
[1] = target: T1, PKR ΔPK-Myc-Flag (aa 1-270) (UniProt P19525 1-270); experiment: co-IP; HEK293 extract with Myc-Flag-tagged PKR FL, ΔPK or ΔRBM mixed with extract with untagged ORF57, RNase A/T1-digested; IP with anti-Flag for PKR; blot anti-ORF57; details: partners not purified
T1 construct: PKR (EIF2AK2) aa 1-270, kinase domain deleted; made from pPKR-FL; also called N-terminal RBM domain of PKR; source: HEK293, transfected, in lysate

[2] = target: T2, phosphorylated full-length PKR-Myc-Flag from arsenite-treated cells (UniProt P19525 1-551, phosphorylated; phospho-Thr 451 detected with anti-phosphorylated PKR (Thr 451)); experiment: co-IP; extract of HEK293 cells with PKR-Myc-Flag, untreated or treated with arsenite for 30 min, mixed with HEK293 extract with ORF57-Flag, RNase A/T1-digested; pulled down with anti-Myc beads; blots anti-Flag, anti-pPKR (Thr 451), anti-ORF57; details: partners not purified
T2 construct: protein kinase R (PKR, EIF2AK2), full length, from pPKR-FL, phosphorylated in arsenite-treated cells; Other phosphorylated sites are not determined in this experiment; also called p-PKR; phosphorylated FL PKR; source: HEK293, transfected, treated with arsenite for 30 min, in lysate
T2 sequence (P19525 whole entry): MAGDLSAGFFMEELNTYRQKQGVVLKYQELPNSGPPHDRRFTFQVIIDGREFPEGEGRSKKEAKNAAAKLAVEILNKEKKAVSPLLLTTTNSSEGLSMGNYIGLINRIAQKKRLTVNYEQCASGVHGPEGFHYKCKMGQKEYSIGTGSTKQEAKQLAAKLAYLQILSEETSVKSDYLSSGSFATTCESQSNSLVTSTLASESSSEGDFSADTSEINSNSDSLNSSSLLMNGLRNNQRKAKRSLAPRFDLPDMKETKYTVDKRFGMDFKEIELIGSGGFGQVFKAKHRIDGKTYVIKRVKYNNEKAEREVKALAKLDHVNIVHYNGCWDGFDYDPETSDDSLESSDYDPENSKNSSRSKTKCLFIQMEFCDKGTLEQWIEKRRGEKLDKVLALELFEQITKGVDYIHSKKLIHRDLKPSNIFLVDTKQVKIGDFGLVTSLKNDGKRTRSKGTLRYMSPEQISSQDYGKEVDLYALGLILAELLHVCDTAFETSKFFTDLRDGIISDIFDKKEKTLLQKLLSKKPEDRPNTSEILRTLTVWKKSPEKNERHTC

T1 sequence (P19525 1-270, stated change not applied): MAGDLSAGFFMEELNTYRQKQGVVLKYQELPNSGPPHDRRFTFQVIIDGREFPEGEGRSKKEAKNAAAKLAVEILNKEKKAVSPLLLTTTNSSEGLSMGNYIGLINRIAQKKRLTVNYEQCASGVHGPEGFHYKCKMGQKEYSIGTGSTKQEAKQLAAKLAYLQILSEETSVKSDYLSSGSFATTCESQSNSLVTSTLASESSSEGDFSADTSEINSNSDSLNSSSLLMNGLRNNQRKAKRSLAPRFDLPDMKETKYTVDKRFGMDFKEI

B1: KSHV ORF57, untagged (pcDNA-ORF57) (natural protein)
chain: MVQAMIDMDIMKGILEDSVSSSEFDESRDDETDAPTLEDEQLSEPAEPPADERIRGTQSAQGIPPPLGRIPKKSQGRSQLRSEIQFCSPLSRPRSPSPVNRYGKKIKFGTAGQNTRPPPEKRPRRRPRDRLQYGRTTRGGQCRAAPKRATRRPQVNCQRQDDDVRQGVSDAVKKLRLPASMIIDGESPRFDDSIIPRHHGACFNVFIPAPPSHVPEVFTDRDITALIRAGGKDDELINKKISAKKIDHLHRQMLSFVTSRHNQAYWVSCRRETAAAGGLQTLGAFVEEQMTWAQTVVRHGGWFDEKDIDIILDTAIFVCNAFVTRFRLLHLSCVFDKQSELALIKQVAYLVAMGNRLVEACNLLGEVKLNFRGGLLLAFVLTIPGMQSRRSISARGQELFRTLLEYYRPGDVMGLLNVIVMEHHSLCRNSECAAATRAAMGSAKFNKGLFFYPLS
notes: KSHV ORF57, untagged, expressed from pcDNA-ORF57; also called untagged ORF57; source: HEK293, transfected, in lysate
With B1 the “fold binding relative to FL PKR” value [1] was about 6.5 fold.

B2: KSHV ORF57-Flag (wild type, pVM7) (natural protein)
chain: MVQAMIDMDIMKGILEDSVSSSEFDESRDDETDAPTLEDEQLSEPAEPPADERIRGTQSAQGIPPPLGRIPKKSQGRSQLRSEIQFCSPLSRPRSPSPVNRYGKKIKFGTAGQNTRPPPEKRPRRRPRDRLQYGRTTRGGQCRAAPKRATRRPQVNCQRQDDDVRQGVSDAVKKLRLPASMIIDGESPRFDDSIIPRHHGACFNVFIPAPPSHVPEVFTDRDITALIRAGGKDDELINKKISAKKIDHLHRQMLSFVTSRHNQAYWVSCRRETAAAGGLQTLGAFVEEQMTWAQTVVRHGGWFDEKDIDIILDTAIFVCNAFVTRFRLLHLSCVFDKQSELALIKQVAYLVAMGNRLVEACNLLGEVKLNFRGGLLLAFVLTIPGMQSRRSISARGQELFRTLLEYYRPGDVMGLLNVIVMEHHSLCRNSECAAATRAAMGSAKFNKGLFFYPLS
notes: KSHV ORF57 (mRNA transcript accumulation protein, MTA), wild type, expressed from pVM7; also called ORF57 wt; ORF57-wt-Flag; source: HEK293 or HeLa, transfected, in lysate
For B2, the “fold binding relative to PKR from untreated cells” value [2] was about 3 times.
